According to US20020052476A1 (Human Genome Sciences, published 2002):

T1: m-CysE (mutant CysE: amino acids 29-143 of SEQ ID NO: 2 plus a 27 amino acid C-terminal fusion product encoded by the pA2 vector)
T1 chain: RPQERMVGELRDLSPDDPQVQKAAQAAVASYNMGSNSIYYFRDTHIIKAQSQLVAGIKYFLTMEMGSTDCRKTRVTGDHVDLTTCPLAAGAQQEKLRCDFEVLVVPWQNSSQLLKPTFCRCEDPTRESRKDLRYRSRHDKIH

T2: recombinant human cystatin E (mature CysE secreted from baculovirus-infected Sf9 cells)
T2 chain: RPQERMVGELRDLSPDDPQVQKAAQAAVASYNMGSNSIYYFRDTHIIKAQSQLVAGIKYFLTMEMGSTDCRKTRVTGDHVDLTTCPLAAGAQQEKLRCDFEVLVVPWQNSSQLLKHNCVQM

T3: papain (EC 3.4.22.2; from Sigma) (UniProt P00784 134-345)
T3 construct: Commercial enzyme
T3 sequence (looked up): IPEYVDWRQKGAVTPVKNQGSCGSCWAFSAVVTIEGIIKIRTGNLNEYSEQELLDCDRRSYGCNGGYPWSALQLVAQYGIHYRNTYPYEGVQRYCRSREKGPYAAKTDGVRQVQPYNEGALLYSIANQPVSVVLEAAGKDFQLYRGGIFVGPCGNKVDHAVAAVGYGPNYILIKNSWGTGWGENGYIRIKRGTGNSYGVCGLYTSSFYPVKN

B1: papain (EC 3.4.22.2; from Sigma) (protein)
chain: T3 sequence (looked up)
B2: recombinant human cystatin E (mature CysE secreted from baculovirus-infected Sf9 cells) (other)
chain: T2 chain
modifications: partly N-glycosylated (protein band doublet, a glycosylated and an unglycosylated form)
notes: Full-length cDNA was expressed in Sf9 cells; also called recombinant CysE

What was measured:
[1] = biological target: T1, m-CysE (mutant CysE: amino acids 29-143 …)
[2] = biological target: T2, recombinant human cystatin E (mature …)
[3] = biological target: T3, papain (EC 3.4.22.2; from Sigma); experiment: titration of papain activity (Bz-Arg-pNA hydrolysis) with varying inhibitor concentrations; linear titration curves
Source text: To test the function of CysE and m-CysE as protease inhibitors their effect on papain hydrolysis of casein was investigated according to the method of Example 10. […] The m-CysE mutant performed similarly (data not shown).
The methods used for active site titration of papain, titration of the molar enzyme inhibitory concentration in cystatin E preparations, and for determination of equilibrium constants for dissociation (Ki) of complexes between cystatin E and cysteine peptidases are described in detail in Hall et al., Biochem. J., 291:123-29 (1993) and Abrahamson, Methods Enzymol., 244:685-700 (1994), both of which are hereby incorporated herein by reference. The enzymes used for equilibrium assays were papain (EC 3.4.22.2; from Sigma, St Louis, Mo.) and cathepsin B (EC 3.4.22.1; from Calbiochem, La Jolla, Calif.). […] Steady state velocities were measured and Ki values were calculated according to Henderson, Biochem J., 127:321-333 (1972), incorporated herein by reference. Corrections for substrate competition were made using Km values of 150=B5M for cathepsins B (Barrett and Kirschke, Methods Enzymol., 80:535-561 (1981) and 60=B5M for papain (Hall et al., Biochem. J., 291:123-29 (1992)), both of which are hereby incorporated herein by reference.

Binder | papain hydrolysis of casein [1] | papain hydrolysis of Bz-Arg-pNA in 10 minute assays [2] | papain hydrolysis of casein [2] | Ki [3]
B1 | Both CysE and m-CysE showed a dose- and time-dependent inhibition of papain activity (data not shown) | At mM concentrations, the recombinant CysE completely inhibited papain hydrolysis of Bz-Arg-pNA in 10 minute assays | Both CysE and m-CysE showed a dose- and time-dependent inhibition of papain activity (data not shown) | 
B2 |  |  |  | < 10 nM
